Source: publication PMC3906981

Biological target: HA-tagged PAK2 (p21 protein (Cdc42/Rac)-activated kinase) (UniProt Q13177)
Assay: co-immunoprecipitation (anti-AU1) with in vitro kinase assay, densitometric quantification
Set-up: reference not given here
Settings: cells transfected with Nef, CDC42V12 and PAK2-HA; parent: 114

Sequence of UniProt Q13177 (Q13177 whole entry): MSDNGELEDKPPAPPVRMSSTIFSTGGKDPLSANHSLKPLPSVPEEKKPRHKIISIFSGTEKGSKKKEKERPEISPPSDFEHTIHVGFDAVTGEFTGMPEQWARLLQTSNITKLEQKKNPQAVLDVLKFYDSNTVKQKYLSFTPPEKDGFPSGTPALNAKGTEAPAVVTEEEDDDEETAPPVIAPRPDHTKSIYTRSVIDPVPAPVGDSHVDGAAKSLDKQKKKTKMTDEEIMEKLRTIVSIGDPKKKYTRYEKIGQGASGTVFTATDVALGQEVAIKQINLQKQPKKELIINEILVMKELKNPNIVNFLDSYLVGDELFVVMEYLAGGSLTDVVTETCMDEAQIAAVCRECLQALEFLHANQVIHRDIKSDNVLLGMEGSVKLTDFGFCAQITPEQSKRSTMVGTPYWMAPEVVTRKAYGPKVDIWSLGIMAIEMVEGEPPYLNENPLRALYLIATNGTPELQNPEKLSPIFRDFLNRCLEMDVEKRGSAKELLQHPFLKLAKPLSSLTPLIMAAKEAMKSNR

| Substance | response |
| --- | --- |
| AU1-tagged SIVblu Nef, wild-type R129A; R130A | 0 |

Same assay, conditions: cells transfected with Nef, CDC42V12 and PAK2-HA; parent: 160

| Substance | response |
| --- | --- |
| AU1-tagged SIVmac239 Nef, wild-type Y221R | 26 |
| AU1-tagged SIVmac239 Nef, wild-type P104A | 123 |
| AU1-tagged SIVmac239 Nef, wild-type P104A; P107A | 34 |
| AU1-tagged SIVmac239 Nef, wild-type P107A | 59 |
| AU1-tagged SIVmac239 Nef, wild-type H121R | 23 |
| AU1-tagged SIVmac239 Nef, wild-type H121R; Y221R | 0 |
